Source: article PMC4987244 (Cancer research, 2016)
Positions count from the first letter of the chain named. Numbers in names are those of the source. Like-named read-outs stand apart in the source and are kept apart here. Each block holds one binder with its values, some of them ahead of it.

Columns and labels:
[1] = biological target: the molecule itself
[2] = biological target: the molecule itself; experiment: cross-linking
[3] = biological target: T1, HA-tagged PRL1 expressed in HEK293 cells, Q93096; experiment: cross-linking; conditions: remark: other sources report otherwise
T1 chain: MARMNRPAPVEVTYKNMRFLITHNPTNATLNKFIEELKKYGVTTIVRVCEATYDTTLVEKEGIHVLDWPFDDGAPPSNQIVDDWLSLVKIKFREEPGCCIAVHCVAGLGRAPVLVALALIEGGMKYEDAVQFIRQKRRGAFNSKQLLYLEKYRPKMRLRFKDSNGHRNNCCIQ

B1: PRL2 (enzyme, UniProt Q12974 1-167, looked up)
chain: MNRPAPVEISYENMRFLITHNPTNATLNKFTEELKKYGVTTLVRVCDATYDKAPVEKEGIHVLDWPFDDGAPPPNQIVDDWLNLLKTKFREEPGCCVAVHCVAGLGRAPVLVALALIECGMKYEDAVQFIRQKRRGAFNSKQLLYLEKYRPKMRLRFRDTNGHCCVQ
- stoichiometry N [1]: 3

B2: PRL1 (phosphatase of regenerating liver 1), recombinant wild type (enzyme)
chain: MNRPAPVEVTYKNMRFLITHNPTNATLNKFIEELKKYGVTTIVRVCEATYDTTLVEKEGIHVLDWPFDDGAPPSNQIVDDWLSLVKIKFREEPGCCIAVHCVAGLGRAPVLVALALIEGGMKYEDAVQFIRQKRRGAFNSKQLLYLEKYRPKMRLRF
- stoichiometry N [2]: 3

B3: PRL1/Y14A, recombinant (enzyme)
chain: B2 chain with Y11A
- stoichiometry N [2]: 3

B4: PRL1/F132A, recombinant (enzyme)
chain: B2 chain with F129A
- stoichiometry N [2]: 3

- stoichiometry N [3]: 3
B5: HA-tagged PRL1 expressed in HEK293 cells, Q93096 1-173 (enzyme)
chain: T1 chain
